# Test results taken from the supplement of paper PMC9112550, “Optimization of the antimicrobial peptide Bac7 by deep mutational scanning” (BMC Biology, 2022).
# Tested on: Escherichia coli TOP10
# Assay: shrunken log2 fold change of peptide-encoding DNA abundance (4.5 h post-induction vs induction); higher = less antimicrobial activity (less host growth inhibition)
# Conditions: time post-induction: 4.5 h; library: site-saturation at positions 5, 18, 19, 20
# 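Further: peptides expressed intracellularly from a pBAD plasmid library in pooled LB shake-flask culture, induced with 0.3% L-arabinose, DNA abundance read by NGS, three biological replicates, DESeq2 with apeglm shrinkage.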
row,Sequence,shrunken log2 fold change
1,RRIRDRPPRLPRPRPRPHWNPRP,-0.201
2,RRIRWRPPRLPRPRPRPDVHPRP,-0.0103
3,RRIRIRPPRLPRPRPRPFVWPRP,-0.157
4,RRIRPRPPRLPRPRPRPACWPRP,0.671
5,RRIRARPPRLPRPRPRPDCGPRP,0.966
6,RRIRQRPPRLPRPRPRPHYQPRP,-0.0204
7,RRIRMRPPRLPRPRPRPCVEPRP,0.755
8,RRIRGRPPRLPRPRPRPVGYPRP,0.295
9,RRIRLRPPRLPRPRPRPWQSPRP,0.0341
10,RRIRVRPPRLPRPRPRPLAVPRP,0.33
11,RRIRHRPPRLPRPRPRPFGEPRP,-0.0377
12,RRIRKRPPRLPRPRPRPACAPRP,1
13,RRIRIRPPRLPRPRPRPVPLPRP,-0.442
14,RRIRVRPPRLPRPRPRPYLKPRP,-0.0795
15,RRIRNRPPRLPRPRPRPRFLPRP,0.0562
16,RRIRERPPRLPRPRPRPPVWPRP,0.634
17,RRIRFRPPRLPRPRPRPRDWPRP,0.308
18,RRIRMRPPRLPRPRPRPSTAPRP,0.788
19,RRIRYRPPRLPRPRPRPRAEPRP,-0.162
20,RRIRVRPPRLPRPRPRPHIFPRP,-0.547
21,RRIRRRPPRLPRPRPRPNNTPRP,0.00573
22,RRIRGRPPRLPRPRPRPTSMPRP,0.643
23,RRIRDRPPRLPRPRPRPWFEPRP,-0.175
24,RRIRERPPRLPRPRPRPRTTPRP,0.00749
25,RRIRDRPPRLPRPRPRPFFLPRP,-0.261

row,Sequence,shrunken log2 fold change
1,RRIRARPPRLPRPRPRPTYGPRP,-0.0482
2,RRIRQRPPRLPRPRPRPFPSPRP,-0.0654
3,RRIRDRPPRLPRPRPRPYKGPRP,-0.00133
4,RRIRMRPPRLPRPRPRPPMKPRP,-0.0709
5,RRIRPRPPRLPRPRPRPGMLPRP,-0.0338
6,RRIRHRPPRLPRPRPRPPLFPRP,0.169
7,RRIRGRPPRLPRPRPRPCHSPRP,0.0222
8,RRIRDRPPRLPRPRPRPRELPRP,0.0713
9,RRIRCRPPRLPRPRPRPNETPRP,-0.0198
10,RRIRWRPPRLPRPRPRPYVMPRP,-0.511
11,RRIRRRPPRLPRPRPRPAWIPRP,0.358
12,RRIRMRPPRLPRPRPRPKMCPRP,0.0261
13,RRIRSRPPRLPRPRPRPLNLPRP,-0.539
14,RRIRCRPPRLPRPRPRPECFPRP,0.165
15,RRIRCRPPRLPRPRPRPFMMPRP,-0.266
16,RRIRARPPRLPRPRPRPIFCPRP,0.445
17,RRIRVRPPRLPRPRPRPETRPRP,0.577
18,RRIRHRPPRLPRPRPRPWAEPRP,-0.119
19,RRIRERPPRLPRPRPRPRDSPRP,0.0154
20,RRIRWRPPRLPRPRPRPPFCPRP,0.24
21,RRIRHRPPRLPRPRPRPTWTPRP,2.15e-05
22,RRIRTRPPRLPRPRPRPKSWPRP,0.245
23,RRIRRRPPRLPRPRPRPHWAPRP,-0.17
24,RRIRCRPPRLPRPRPRPICFPRP,-0.241
25,RRIRPRPPRLPRPRPRPESMPRP,0.142
